This is an account of results in article PMC11761773.

The assay concerns the target Fc-binding nanodisc F-ND_(P2N2), made with F-MSP2N2. Kind of assay: SEC.

The substance immunoglobulin G (IgG) (antibody) displayed a stoichiometry N of 1 molar ratio.
